Test results as given in PMC9578707, “Identification of orphan ligand-receptor relationships using a cell-based CRISPRa enrichment screening platform” (eLife, 2022).
Blank lines part the entries; values can stand above or below the binder they belong to.

Legend:
[1] = target: T1, growth arrest specific 1 protein (GAS1) (human, UniProt P54826 40-317); experiment: SPR; Biacore T100; biotinylated ligand captured on a streptavidin (SA) Series S chip (~100-200 RU); non-biotinylated analyte in twofold dilutions in HBS-P+; 60 s injection at 30 ul/min, 240 s dissociation; regeneration 2 x 10 sec 2M MgCl2; KD from the fit at equilibrium (steady state); settings: both partners purified
T1 construct: growth arrest specific 1 (GAS1), human; source: Expi293F, purified (Ni-NTA, SEC), not biotinylated (SPR analyte)
T1 sequence (looked up): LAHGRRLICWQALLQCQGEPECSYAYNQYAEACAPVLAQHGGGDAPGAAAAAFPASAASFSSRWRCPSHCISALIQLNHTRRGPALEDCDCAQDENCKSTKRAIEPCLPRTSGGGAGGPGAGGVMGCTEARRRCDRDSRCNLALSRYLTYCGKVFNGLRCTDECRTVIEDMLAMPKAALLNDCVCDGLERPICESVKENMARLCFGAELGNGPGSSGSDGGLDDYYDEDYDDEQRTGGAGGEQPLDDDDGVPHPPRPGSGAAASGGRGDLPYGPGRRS

ROR1 and MFRP = experiment: SPR; Biacore T100; biotinylated receptor ECD or hit protein captured on a streptavidin chip (~100-200 RU), non-biotinylated secreted ligand as analyte in twofold dilutions; HBS-P+ buffer; 1:1 Langmuir model or equilibrium fit
MFRP-ECD = target: T2, MFRP-ECD (human, UniProt Q9BY79 91-579, biotin (captured on the streptavidin chip)); experiment: as above; settings: both partners purified
T2 construct: membrane Frizzled-related protein, human, extracellular domain; construct of the ECD is not described; also called membrane Frizzled (FZD)-related protein; source: Expi293F, purified (Ni-NTA, SEC)
T2 sequence (looked up): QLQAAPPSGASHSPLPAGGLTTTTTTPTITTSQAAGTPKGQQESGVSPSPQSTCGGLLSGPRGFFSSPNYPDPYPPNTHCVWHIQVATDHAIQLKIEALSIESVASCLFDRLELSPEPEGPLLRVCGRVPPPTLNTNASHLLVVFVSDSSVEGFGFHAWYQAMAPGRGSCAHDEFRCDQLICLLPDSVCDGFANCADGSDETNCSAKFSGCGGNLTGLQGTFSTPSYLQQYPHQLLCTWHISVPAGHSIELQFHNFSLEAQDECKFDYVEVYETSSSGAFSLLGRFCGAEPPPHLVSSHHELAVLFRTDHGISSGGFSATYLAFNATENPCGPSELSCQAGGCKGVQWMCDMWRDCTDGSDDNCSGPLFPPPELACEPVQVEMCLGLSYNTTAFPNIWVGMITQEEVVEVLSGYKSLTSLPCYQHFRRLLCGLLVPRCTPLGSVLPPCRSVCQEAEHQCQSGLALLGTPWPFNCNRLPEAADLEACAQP

ROR1-ECD = target: T3, ROR1-ECD (human, UniProt Q01973 30-406, biotin (captured on the streptavidin chip)); experiment: as above; settings: both partners purified
T3 construct: ROR1, human, extracellular domain; construct of the ECD is not described; source: Expi293F, purified (Ni-NTA, SEC)

human PTPRU-ECD [2] = target: T4, human PTPRU-ECD (human, UniProt Q92729 19-749, biotin where captured on the streptavidin chip); experiment: SPR
T4 chain: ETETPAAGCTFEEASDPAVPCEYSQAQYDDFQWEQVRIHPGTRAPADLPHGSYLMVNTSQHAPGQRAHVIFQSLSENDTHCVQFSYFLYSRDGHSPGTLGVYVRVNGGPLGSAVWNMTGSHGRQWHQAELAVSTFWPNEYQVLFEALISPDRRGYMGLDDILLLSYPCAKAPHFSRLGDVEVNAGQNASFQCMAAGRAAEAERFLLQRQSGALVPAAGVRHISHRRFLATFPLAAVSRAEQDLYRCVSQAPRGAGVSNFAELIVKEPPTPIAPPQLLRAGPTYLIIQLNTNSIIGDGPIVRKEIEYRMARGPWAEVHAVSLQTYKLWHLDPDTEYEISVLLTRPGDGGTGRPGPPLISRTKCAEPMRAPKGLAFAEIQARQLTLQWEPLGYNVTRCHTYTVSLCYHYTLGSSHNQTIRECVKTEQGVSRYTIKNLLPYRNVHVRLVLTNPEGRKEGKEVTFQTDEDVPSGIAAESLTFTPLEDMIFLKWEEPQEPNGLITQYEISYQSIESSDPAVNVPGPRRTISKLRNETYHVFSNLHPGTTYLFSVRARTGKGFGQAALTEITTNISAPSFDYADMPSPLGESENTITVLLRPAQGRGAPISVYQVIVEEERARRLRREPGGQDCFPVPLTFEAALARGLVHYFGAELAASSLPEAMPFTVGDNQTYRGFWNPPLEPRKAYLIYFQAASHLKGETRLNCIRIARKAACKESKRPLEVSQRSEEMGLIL

PTPRF ECD = target: T5, PTPRF ECD (human, UniProt P10586 30-1263, biotin where captured on the streptavidin chip); experiment: SPR; Biacore T100; biotinylated secreted ligand (OMG, PTN or MDK) captured on a streptavidin chip, receptor ECD as analyte; HBS-P+ buffer; settings: both partners purified
T5 construct: PTPRF, human, extracellular domain; construct of the ECD is not described; also called PRPRF; source: Expi293F, purified (Ni-NTA, SEC)

PTPRS ECD = target: T6, PTPRS ECD (human, UniProt Q13332 30-1282, biotin where captured on the streptavidin chip); experiment: as above; settings: both partners purified
T6 construct: PTPRS, human, extracellular domain; construct of the ECD is not described; source: Expi293F, purified (Ni-NTA, SEC)
T6 sequence (looked up): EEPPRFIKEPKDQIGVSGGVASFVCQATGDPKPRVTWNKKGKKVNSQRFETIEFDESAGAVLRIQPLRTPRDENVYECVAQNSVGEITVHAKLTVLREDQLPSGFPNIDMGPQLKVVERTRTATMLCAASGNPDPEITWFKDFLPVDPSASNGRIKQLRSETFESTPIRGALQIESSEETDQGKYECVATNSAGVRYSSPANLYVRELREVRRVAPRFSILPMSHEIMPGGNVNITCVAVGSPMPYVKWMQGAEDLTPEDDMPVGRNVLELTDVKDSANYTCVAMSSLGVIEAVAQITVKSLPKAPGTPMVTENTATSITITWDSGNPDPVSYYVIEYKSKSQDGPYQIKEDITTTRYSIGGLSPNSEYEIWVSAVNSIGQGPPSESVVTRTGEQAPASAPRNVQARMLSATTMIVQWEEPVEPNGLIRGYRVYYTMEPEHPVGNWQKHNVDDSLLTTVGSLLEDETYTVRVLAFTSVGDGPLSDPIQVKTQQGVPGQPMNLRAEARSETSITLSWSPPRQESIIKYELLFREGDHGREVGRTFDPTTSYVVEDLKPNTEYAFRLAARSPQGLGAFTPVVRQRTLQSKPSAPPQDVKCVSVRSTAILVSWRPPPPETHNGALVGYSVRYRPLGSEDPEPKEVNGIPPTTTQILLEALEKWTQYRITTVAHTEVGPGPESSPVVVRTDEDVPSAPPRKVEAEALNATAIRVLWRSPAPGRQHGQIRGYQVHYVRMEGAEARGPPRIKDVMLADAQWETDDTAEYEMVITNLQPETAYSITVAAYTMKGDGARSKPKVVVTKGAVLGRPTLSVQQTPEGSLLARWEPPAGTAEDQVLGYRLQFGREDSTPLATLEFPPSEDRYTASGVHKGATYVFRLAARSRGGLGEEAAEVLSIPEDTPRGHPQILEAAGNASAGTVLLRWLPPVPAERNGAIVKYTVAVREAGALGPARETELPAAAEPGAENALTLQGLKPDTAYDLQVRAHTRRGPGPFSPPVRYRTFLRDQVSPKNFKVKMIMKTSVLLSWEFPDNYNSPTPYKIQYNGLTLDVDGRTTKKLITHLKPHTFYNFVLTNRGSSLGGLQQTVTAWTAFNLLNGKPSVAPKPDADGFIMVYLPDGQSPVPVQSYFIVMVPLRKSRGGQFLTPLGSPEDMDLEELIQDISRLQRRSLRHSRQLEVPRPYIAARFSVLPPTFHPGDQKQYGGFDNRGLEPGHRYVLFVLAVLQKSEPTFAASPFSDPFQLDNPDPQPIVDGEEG

PTPRD ECD = target: T7, PTPRD ECD (human, UniProt P23468 21-1265, biotin where captured on the streptavidin chip); experiment: as above; settings: both partners purified
T7 construct: PTPRD, human, extracellular domain; construct of the ECD is not described; source: Expi293F, purified (Ni-NTA, SEC)

human PTPRU-ECD [3] = target: T8, human PTPRU-ECD (human, UniProt Q92729 19-749, biotin where captured on the streptavidin chip); experiment: SPR; Biacore T100; biotinylated receptor ECD or hit protein captured on a streptavidin chip (~100-200 RU), non-biotinylated secreted ligand as analyte in twofold dilutions; HBS-P+ buffer; 1:1 Langmuir model or equilibrium fit; settings: both partners purified
T8 construct: PTPRU, human, extracellular domain; construct of the ECD is not described; source: Expi293F, purified (Ni-NTA, SEC)
T8 sequence (looked up): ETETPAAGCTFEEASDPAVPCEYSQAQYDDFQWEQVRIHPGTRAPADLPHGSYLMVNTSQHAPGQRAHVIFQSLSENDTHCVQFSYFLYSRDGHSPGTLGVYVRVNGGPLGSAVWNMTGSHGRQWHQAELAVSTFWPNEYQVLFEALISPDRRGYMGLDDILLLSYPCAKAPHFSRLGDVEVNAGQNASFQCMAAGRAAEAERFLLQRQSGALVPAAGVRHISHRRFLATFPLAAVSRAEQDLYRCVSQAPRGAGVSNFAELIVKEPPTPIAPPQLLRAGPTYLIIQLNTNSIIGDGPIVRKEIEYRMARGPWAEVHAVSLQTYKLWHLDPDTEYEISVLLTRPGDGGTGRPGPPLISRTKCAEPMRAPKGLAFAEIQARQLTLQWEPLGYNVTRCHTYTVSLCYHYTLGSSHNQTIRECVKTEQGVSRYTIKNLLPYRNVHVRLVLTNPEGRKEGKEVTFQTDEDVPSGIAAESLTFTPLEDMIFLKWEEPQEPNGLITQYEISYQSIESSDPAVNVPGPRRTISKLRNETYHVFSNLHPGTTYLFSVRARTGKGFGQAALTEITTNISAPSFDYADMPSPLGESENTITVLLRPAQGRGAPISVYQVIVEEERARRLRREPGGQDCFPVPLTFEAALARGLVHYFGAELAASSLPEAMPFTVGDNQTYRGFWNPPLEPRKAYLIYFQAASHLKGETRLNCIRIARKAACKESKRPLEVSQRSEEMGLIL

T7 sequence (P23468 21-1265): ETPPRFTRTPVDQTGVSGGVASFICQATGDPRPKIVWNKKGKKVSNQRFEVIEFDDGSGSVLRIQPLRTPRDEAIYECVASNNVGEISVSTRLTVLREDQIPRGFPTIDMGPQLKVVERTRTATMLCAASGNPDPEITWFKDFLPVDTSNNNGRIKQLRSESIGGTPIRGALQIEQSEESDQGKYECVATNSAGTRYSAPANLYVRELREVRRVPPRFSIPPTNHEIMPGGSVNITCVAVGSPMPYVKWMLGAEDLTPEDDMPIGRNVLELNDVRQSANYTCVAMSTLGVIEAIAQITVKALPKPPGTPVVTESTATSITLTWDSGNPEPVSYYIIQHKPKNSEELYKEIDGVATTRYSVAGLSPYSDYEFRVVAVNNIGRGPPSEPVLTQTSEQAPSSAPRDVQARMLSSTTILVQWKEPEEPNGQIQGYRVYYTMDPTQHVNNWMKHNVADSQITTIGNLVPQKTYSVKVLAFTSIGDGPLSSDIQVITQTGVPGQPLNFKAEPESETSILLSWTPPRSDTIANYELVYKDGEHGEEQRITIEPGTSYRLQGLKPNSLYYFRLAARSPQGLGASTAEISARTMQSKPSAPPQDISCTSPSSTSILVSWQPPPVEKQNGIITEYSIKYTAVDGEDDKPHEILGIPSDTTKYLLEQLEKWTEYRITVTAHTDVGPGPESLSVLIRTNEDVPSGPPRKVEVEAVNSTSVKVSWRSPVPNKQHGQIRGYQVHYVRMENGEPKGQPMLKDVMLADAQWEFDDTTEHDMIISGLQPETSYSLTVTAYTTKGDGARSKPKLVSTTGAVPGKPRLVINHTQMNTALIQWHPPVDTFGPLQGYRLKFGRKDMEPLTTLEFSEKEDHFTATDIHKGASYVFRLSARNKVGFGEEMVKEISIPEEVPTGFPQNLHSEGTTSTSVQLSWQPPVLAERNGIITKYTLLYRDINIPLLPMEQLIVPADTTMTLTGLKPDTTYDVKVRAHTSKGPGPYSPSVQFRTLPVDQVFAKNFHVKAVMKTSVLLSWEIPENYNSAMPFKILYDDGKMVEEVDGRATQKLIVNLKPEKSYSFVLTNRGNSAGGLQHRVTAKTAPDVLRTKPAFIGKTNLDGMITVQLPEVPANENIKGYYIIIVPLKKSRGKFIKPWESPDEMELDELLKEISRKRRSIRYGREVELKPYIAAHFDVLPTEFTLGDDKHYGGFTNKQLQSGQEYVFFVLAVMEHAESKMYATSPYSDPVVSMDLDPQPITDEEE

Kd [1]: 1130 nM
B1: PTPRA-ECD (receptor protein tyrosine phosphatase alpha, extracellular domain) (domain or fragment, human, UniProt P18433 20-151, looked up)
chain: NNATTVAPSVGITRLINSSTAEPVKEEAKTSNPTSSLTSLSVAPTFSPNITLGPTYLTTVNSSDSDNGTTRTASTNSIGITISPNGTWLPDNQFTDARTEPWEGNSSTAATTPETFPPSGNSDSKDRRDETP
modifications: biotin (BirA biotinylation; captured on streptavidin chip)
notes: receptor-type protein tyrosine phosphatase alpha (PTPRA, R4 subfamily), human, extracellular domain; source: Expi293F, purified (Ni-NTA, SEC), biotinylated in vitro with BirA

Kd (ROR1 and MFRP): 1000 to 2000 nM
binding result (MFRP-ECD): binds
binding result (ROR1-ECD): binds
B2: pleiotrophin (ligand, human, UniProt P21246 33-168, looked up)
chain: GKKEKPEKKVKKSDCGEWQWSVCVPTSGDCGLGTREGTRTGAECKQTMKTQRCKIPCNWKKQFGAECKYQFQAWGECDLNTALKTRTGSLKRALHNAECQKTVTISKPCGKLTKPKPQAESKKKKKEGKKQEKMLD
modifications: biotin (biotinylated in vitro with BirA) where used on beads or captured on the chip
notes: pleiotrophin, human; also called PTN; source: Expi293F, purified (Ni-NTA, SEC); not shown: AviTag, C-terminal, kept

koff (human PTPRU-ECD [2]): 0.00042 s⁻¹
binding result (PTPRF ECD): binds
binding result (PTPRS ECD): binds
binding result (PTPRD ECD): binds
Kd (human PTPRU-ECD [3]): ~70 nM
B3: oligodendrocyte-myelin glycoprotein (ligand, human, UniProt P23515 25-417, looked up)
chain: ICPLQCICTERHRHVDCSGRNLSTLPSGLQENIIHLNLSYNHFTDLHNQLTQYTNLRTLDISNNRLESLPAHLPRSLWNMSAANNNIKLLDKSDTAYQWNLKYLDVSKNMLEKVVLIKNTLRSLEVLNLSSNKLWTVPTNMPSKLHIVDLSNNSLTQILPGTLINLTNLTHLYLHNNKFTFIPDQSFDQLFQLQEITLYNNRWSCDHKQNITYLLKWMMETKAHVIGTPCSTQISSLKEHNMYPTPSGFTSSLFTVSGMQTVDTINSLSVVTQPKVTKIPKQYRTKETTFGATLSKDTTFTSTDKAFVPYPEDTSTETINSHEAAAATLTIHLQDGMVTNTSLTSSTKSSPTPMTLSITSGMPNNFSEMPQQSTTLNLWREETTTNVKTPLPS
modifications: biotin (biotinylated in vitro with BirA) where used on beads or captured on the chip
notes: oligodendrocyte-myelin glycoprotein, human; also called OMG; source: Expi293F, purified (Ni-NTA, SEC); not shown: AviTag, C-terminal, kept
